Like-named read-outs stand apart in the source and are kept apart here.
Experiments:
Assay in all cases: FACS binding
[1] = target: CHOS-hCCR8-hCTLA-4 cell (human) (UniProt P16410)
[2] = target: CHOS-hCCR8-hCTLA-4 cell (human) (UniProt P16410); remark: listed apart in the source
[3] = target: CHOS-hCCR8-hCTLA-4 cell (human) (UniProt P16410); remark: listed apart in the source

CHOS-hCCR8-hCTLA-4 cell (human), sequence (P16410 36-223, chain 1 of 2): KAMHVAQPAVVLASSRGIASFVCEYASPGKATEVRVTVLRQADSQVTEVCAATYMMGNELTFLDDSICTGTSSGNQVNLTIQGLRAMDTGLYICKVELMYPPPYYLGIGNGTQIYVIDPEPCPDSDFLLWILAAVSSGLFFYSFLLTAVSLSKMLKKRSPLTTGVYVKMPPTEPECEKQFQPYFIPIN
CHOS-hCCR8-hCTLA-4 cell (human), sequence (P51685 whole entry, chain 2 of 2, further chain): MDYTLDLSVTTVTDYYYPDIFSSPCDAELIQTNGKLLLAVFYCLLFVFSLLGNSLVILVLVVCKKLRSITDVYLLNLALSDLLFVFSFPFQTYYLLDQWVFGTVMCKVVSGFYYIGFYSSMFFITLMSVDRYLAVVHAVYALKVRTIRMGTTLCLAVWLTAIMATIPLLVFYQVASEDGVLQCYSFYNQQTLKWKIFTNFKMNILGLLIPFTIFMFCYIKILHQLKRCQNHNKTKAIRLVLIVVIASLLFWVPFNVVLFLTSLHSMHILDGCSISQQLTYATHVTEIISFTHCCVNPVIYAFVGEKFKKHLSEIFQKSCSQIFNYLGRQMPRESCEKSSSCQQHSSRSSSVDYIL

How did the EC50 [1] turn out when Yervoy was run?
The EC50 was 0.682 nM.

And the EC50 [2]?
Its EC50 is 0.75 nM.

What about the EC50 [3] of the same substance?
The EC50 was 0.722 nM.

— patent US20260234261A1
